Experimental data taken from patent publication EP1666595A1 (Beth Israel Deaconess Medical Center, Inc., dated 2006).

T1: SHP-2 (endogenous, in BaF3, P210BCR-ABL BaF3 and BAC1.2F5 cells) (UniProt P35235 2-593)
T1 sequence (looked up): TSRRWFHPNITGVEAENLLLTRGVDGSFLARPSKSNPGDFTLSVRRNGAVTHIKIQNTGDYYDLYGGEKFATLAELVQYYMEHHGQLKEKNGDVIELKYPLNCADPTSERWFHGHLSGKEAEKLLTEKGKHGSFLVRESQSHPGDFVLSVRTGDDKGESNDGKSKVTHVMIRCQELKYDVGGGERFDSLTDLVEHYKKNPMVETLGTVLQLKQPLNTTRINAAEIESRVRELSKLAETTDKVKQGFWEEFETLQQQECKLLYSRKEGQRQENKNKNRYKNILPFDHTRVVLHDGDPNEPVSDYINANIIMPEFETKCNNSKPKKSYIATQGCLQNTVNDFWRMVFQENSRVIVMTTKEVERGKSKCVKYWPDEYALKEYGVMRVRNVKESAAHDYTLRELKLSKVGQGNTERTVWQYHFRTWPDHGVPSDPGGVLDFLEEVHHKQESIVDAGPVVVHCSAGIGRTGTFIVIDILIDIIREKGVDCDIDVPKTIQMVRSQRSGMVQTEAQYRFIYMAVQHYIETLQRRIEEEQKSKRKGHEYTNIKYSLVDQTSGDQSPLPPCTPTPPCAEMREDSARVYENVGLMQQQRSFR

B1: Gab2HA (HA-tagged wild type Gab2) (other, not shown: small tags and cut ends)
chain: MSGGGGDDVVCTGWLRKSPPEKKLRRYAWKKRWFILRSGRMSGDPDVLEYYKNEHSKKPLRIINLNLCEQVDAGLTFNKKELQDSFVFDIKTSERTFYLVAETEADMNKWVQSICQICGFNQAEESTDSLRNLSSASHGPRSSPAEFSSSQHLLRERKSSAPSHSSQPTLFTFEPPVSSHMQPTLSTSAPQEYLYLHQCISRRTENARSASFSQGTRQKSDTAVQKLAQSNGHCINGVGGQVHGFYSLPKPSRHNTEFKDSTYDLPRSLASHGHTKSSLTGSETDNEDVYTFKMPSNTLCRELGDLLVDNMDVPTTPLSAYQIPRTFTLDKNHNAMTVATPGDSAIAPPPRPPKPSQAETSQWGSIQQRPPISENSRSVAATIPRRNTLPAMDNSRLHRASSCETYEYPARGSGESASWSAEPPGKTAVGRSNSASSDDNYVPMNPGSSTLLAMERPGDNSQSVYIPMSPGPHHFDPLGYPSTALPIHRGPSRGSEIQPPPVNRNLKPDRKAKPTPLDLRNNTVIDELPFKSPVTKSWSRINSHTFNSSSSQYCRPISTQSITSTDSGDSEENYVPMQNPVSASPVPSGTNSPAPKKSTGSVDYLALDFQPGSPSPHRKPSTSSVTSDEKVDYVQVDKEKTQALQNTMQEWTDVRQSSEPSKGAKL
modifications: tyrosyl phosphorylated upon IL-3 stimulation
B2: Crk (endogenous, in BaF3 cells) (other, UniProt Q64010 2-304, looked up)
chain: AGNFDSEERSSWYWGRLSRQEAVALLQGQRHGVFLVRDSSTSPGDYVLSVSENSRVSHYIINSSGPRPPVPPSPAQPPPGVSPSRLRIGDQEFDSLPALLEFYKIHYLDTTTLIEPVARSRQGSGVILRQEEAEYVRALFDFNGNDEEDLPFKKGDILRIRDKPEEQWWNAEDSEGKRGMIPVPYVEKYRPASASVSALIGGNQEGSHPQPLGGPEPGPYAQPSVNTPLPNLQNGPIYARVIQKRVPNAYDKTALALEVGELVKVTKINVSGQWEGECNGKRGHFPFTHVRLLDQQNPDEDFS
B3: Crk-L (endogenous, in BaF3 cells) (other, UniProt P47941 1-303, looked up)
chain: MSSARFDSSDRSAWYMGPVTRQEAQTRLQGQRHGMFLVRDSSTCPGDYVLSVSENSRVSHYIINSLPNRRFKIGDQEFDHLPALLEFYKIHYLDTTTLIEPAPRYPSPPVGSVSAPNLPTAEENLEYVRTLYDFPGNDAEDLPFKKGELLVIIEKPEEQWWSARNKDGRVGMIPVPYVEKLVRSSPHGKHGNRNSNSYGIPEPAHAYAQPQTTTPLPTVASTPGAAINPLPSTQNGPVFAKAIQKRVPCAYDKTALALEVGDIVKVTRMNINGQWEGEVNGRKGLFPFTHVKIFDPQNPDDNE
notes: Named in brackets next to Crk

Columns and labels:
[1] = biological target: T1, SHP-2 (endogenous, in BaF3, P210BCR-ABL …); experiment: cell-based or functional assay
[2] = biological target: T2, Gab2 (endogenous, in BaF3, P210BCR-ABL BaF3 and BAC1.2F5 cells) (Mus musculus (Mouse), UniProt Q9Z1S8 1-665, tyrosyl phosphorylated upon stimulation; Y604 and Y633 'both sites are highly phosphorylated'); experiment: immunoprecipitation and immunoblotting, BaF3 cells
T2 construct: BaF3 is a murine line, and KIAA0571 is called the possible human homolog; also called p97; p97/Gab2

[3] = biological target: B1; experiment: immunoprecipitation and immunoblotting, transfected BaF3 cells

| Binder | basal c-fos luciferase activity [1] [fold] | binding result [2] | binding result [3] |
| --- | --- | --- | --- |
| B1 | ~2 |  |  |
| B2 |  | no binding | no binding |
| B3 |  | no binding | no binding |
